Assay results: patent publication US20140087995A1 (published 2014)
Numbered stars: 1 amine (or outer) side, 2 acyl side, 3 side chain; on linkers, the order of the positions; unused ones are H or OH. Bridge positions count the residues as written; N and C are the ends. Side chains are listed from the residue outwards. Ends that are not written are not given here. * marks the point of attachment. C20 diacid = O=C(O)CCCCCCCCCCCCCCCCCCC(=O)*; γGlu = O=C(O)[C@H](CCC(=O)[*:2])N[*:1]; AEEA = NCCOCCOCC(=O)O

T1: human amylin receptor (human, UniProt P30988 25-474; O60896 24-148, limits assumed)
T1 construct: whole, on cells; Calcitonin receptor plus RAMP-3 gives the amylin 3(a) receptor; membranes of Amylin 3(a)/CRE-luc cells were used; also called hAmylin-R; hAmylinR
T1 sequence (looked up) 1: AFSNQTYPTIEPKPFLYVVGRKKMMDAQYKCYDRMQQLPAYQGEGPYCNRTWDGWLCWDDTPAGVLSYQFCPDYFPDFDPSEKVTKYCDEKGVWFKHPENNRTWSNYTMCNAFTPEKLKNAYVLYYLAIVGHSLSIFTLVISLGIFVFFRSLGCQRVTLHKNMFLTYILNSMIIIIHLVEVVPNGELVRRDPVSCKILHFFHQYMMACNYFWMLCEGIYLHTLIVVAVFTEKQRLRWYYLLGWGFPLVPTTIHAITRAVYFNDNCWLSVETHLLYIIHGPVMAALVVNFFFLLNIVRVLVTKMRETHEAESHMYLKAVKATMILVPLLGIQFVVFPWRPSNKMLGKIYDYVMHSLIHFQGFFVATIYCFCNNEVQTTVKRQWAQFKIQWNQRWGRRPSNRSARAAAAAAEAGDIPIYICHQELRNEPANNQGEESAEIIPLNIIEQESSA
T1 sequence (looked up) 2: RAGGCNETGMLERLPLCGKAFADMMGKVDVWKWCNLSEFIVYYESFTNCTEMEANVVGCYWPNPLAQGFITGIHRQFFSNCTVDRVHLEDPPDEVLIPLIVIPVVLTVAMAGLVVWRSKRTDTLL


Target: T1, human amylin receptor
Assay: SPA competition binding, displacement of 125I-rat amylin from membranes with human amylin 3(a) receptor (Assay V)
Outline: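 SPA beads with BHK Amylin 3(a)/CRE-luc cell membranes (35 ng/μL final) in 50 mM Hepes pH 7.4, 1 mM CaCl2, 5 mM MgCl₂, 0.1% OA, 0.02% Tween20.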

IC50 [pM]	Binder
568	K([AEEA-AEEA-γGlu-C20 diacid])CNTATCATQRLANFLRHSSPNFGAIPSSTNVGHNTY-NH2 (disulfide 2-7; N-terminus assumed; SMILES CC[C@H](C)[C@H](NC(=O)[C@H](C)NC(=O)CNC(=O)[C@H](Cc1ccccc1)NC(=O)[C@H](CC(N)=O)NC(=O)[C@@H]1CCCN1C(=O)[C@H](CO)NC(=O)[C@H](CO)NC(=O)[C@H](Cc1c[nH]cn1)NC(=O)[C@H](CCCNC(=N)N)NC(=O)[C@H](CC(C)C)NC(=O)[C@H](Cc1ccccc1)NC(=O)[C@H](CC(N)=O)NC(=O)[C@H](C)NC(=O)[C@H](CC(C)C)NC(=O)[C@H](CCCNC(=N)N)NC(=O)[C@H](CCC(N)=O)NC(=O)[C@@H](NC(=O)[C@H](C)NC(=O)[C@@H]1CSSC[C@H](NC(=O)[C@@H](N)CCCCNC(=O)COCCOCCNC(=O)COCCOCCNC(=O)CC[C@H](NC(=O)CCCCCCCCCCCCCCCCCCC(=O)O)C(=O)O)C(=O)N[C@@H](CC(N)=O)C(=O)N[C@@H]([C@@H](C)O)C(=O)N[C@@H](C)C(=O)N[C@@H]([C@@H](C)O)C(=O)N1)[C@@H](C)O)C(=O)N1CCC[C@H]1C(=O)N[C@@H](CO)C(=O)N[C@@H](CO)C(=O)N[C@H](C(=O)N[C@@H](CC(N)=O)C(=O)N[C@H](C(=O)NCC(=O)N[C@@H](Cc1c[nH]cn1)C(=O)N[C@@H](CC(N)=O)C(=O)N[C@H](C(=O)N[C@@H](Cc1ccc(O)cc1)C(N)=O)[C@@H](C)O)C(C)C)[C@@H](C)O, also called 17R, 21P, 27P, 34H)
166	K([AEEA-AEEA-γGlu-C20 diacid])CNTATCATQRLANFLRHSSPNFGAIPSSTPVGSNTY-NH2 (disulfide 2-7; N-terminus assumed; SMILES CC[C@H](C)[C@H](NC(=O)[C@H](C)NC(=O)CNC(=O)[C@H](Cc1ccccc1)NC(=O)[C@H](CC(N)=O)NC(=O)[C@@H]1CCCN1C(=O)[C@H](CO)NC(=O)[C@H](CO)NC(=O)[C@H](Cc1c[nH]cn1)NC(=O)[C@H](CCCNC(=N)N)NC(=O)[C@H](CC(C)C)NC(=O)[C@H](Cc1ccccc1)NC(=O)[C@H](CC(N)=O)NC(=O)[C@H](C)NC(=O)[C@H](CC(C)C)NC(=O)[C@H](CCCNC(=N)N)NC(=O)[C@H](CCC(N)=O)NC(=O)[C@@H](NC(=O)[C@H](C)NC(=O)[C@@H]1CSSC[C@H](NC(=O)[C@@H](N)CCCCNC(=O)COCCOCCNC(=O)COCCOCCNC(=O)CC[C@H](NC(=O)CCCCCCCCCCCCCCCCCCC(=O)O)C(=O)O)C(=O)N[C@@H](CC(N)=O)C(=O)N[C@@H]([C@@H](C)O)C(=O)N[C@@H](C)C(=O)N[C@@H]([C@@H](C)O)C(=O)N1)[C@@H](C)O)C(=O)N1CCC[C@H]1C(=O)N[C@@H](CO)C(=O)N[C@@H](CO)C(=O)N[C@H](C(=O)N1CCC[C@H]1C(=O)N[C@H](C(=O)NCC(=O)N[C@@H](CO)C(=O)N[C@@H](CC(N)=O)C(=O)N[C@H](C(=O)N[C@@H](Cc1ccc(O)cc1)C(N)=O)[C@@H](C)O)C(C)C)[C@@H](C)O, also called 17R, 21P, 27P, 31P)
